The values below come from PMC13031973 (Nature Communications, 2026).

The target of assay [1] is T1, purified proteasome subunit RPN1 (PSMD2) (human, UniProt Q13200 1-908). The experiment in a line: SPR. A general note: In SPR one partner is held on a chip, and binding of the other changes the refractive index at the surface.
Assay [2] deals with T1, purified proteasome subunit RPN1 (PSMD2). Description: ITC.

T1 sequence (Q13200 whole entry): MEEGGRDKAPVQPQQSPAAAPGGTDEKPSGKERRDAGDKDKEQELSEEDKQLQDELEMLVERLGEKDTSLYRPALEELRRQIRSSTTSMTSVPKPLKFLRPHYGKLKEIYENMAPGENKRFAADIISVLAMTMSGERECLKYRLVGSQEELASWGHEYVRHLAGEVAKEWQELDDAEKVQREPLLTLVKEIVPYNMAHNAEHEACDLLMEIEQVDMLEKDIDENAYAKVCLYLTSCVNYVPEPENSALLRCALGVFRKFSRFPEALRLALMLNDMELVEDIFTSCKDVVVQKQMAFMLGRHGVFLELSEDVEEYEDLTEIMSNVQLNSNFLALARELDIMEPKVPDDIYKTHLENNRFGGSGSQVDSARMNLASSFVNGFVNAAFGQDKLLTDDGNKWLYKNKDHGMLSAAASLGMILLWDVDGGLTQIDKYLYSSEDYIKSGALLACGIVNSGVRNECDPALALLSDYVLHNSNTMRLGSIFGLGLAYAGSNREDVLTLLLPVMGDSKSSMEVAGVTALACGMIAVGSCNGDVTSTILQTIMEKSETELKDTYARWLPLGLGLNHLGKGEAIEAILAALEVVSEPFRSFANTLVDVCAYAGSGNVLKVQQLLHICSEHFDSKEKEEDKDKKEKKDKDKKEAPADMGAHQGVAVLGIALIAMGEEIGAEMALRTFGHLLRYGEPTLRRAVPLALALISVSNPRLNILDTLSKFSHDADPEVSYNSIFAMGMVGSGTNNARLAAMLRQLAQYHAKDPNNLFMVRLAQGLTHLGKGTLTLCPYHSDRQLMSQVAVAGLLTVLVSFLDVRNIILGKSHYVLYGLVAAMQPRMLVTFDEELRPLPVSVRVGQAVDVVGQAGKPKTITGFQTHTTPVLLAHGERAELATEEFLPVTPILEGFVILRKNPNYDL

B1: MIDN(337-468) (domain or fragment)
chain: SPASPAPDLAPRTTSCEKLTAAPSASLLQGQSQIRMCKPPGDRLRQTENRATRCKVERLQLLLQQKRLRRKARRDARGPYHWSPSRKAGRSDSSSSGGGGSPSEASGLGLDFEDSVWKPEVNPDIKSEFVVA
For orientation: Kd means a measure of binding affinity in units of concentration. Read a high Kd as a looser complex. For the molecule B1, the Kd in assay [1] was 390 nM; in assay [2], ~130 nM.

B2: MIDN(337-432) (domain or fragment)
chain: SPASPAPDLAPRTTSCEKLTAAPSASLLQGQSQIRMCKPPGDRLRQTENRATRCKVERLQLLLQQKRLRRKARRDARGPYHWSPSRKAGRSDSSSS
Regarding B2, the Kd in assay [1] is 663 nM; in assay [2], ~146 nM.
